Where two headings read alike, the source gives them in different places. One block for each binder: values may come before it.
Tests used:
[1] = target: T1, B7-1-Fc (R&D Systems Cat #140-B1) (UniProt P33681 35-242); experiment: BLItz bio-layer interferometry; D1.3 IgG held on immobilised lysozyme, B7-1-Fc added at Point 1, buffer at Point 2
T1 construct: Bought reagent; also called CD80; not shown: Fc part of the bought fusion
T1 sequence (looked up): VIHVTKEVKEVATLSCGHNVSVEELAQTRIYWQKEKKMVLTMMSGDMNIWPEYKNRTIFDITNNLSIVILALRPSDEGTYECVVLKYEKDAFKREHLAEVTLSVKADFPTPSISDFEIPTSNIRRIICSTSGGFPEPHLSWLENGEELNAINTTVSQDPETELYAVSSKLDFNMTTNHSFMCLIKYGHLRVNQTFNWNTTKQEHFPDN

[2] = target: T1, B7-1-Fc (R&D Systems Cat #140-B1); experiment: SPR (Biacore X100); molecule captured on biotin-lysozyme, B7-1-Fc as analyte
[3] = target: T1, B7-1-Fc (R&D Systems Cat #140-B1); experiment: as above; remark: listed apart in the source

B2: D1.3 IgG-VLDx2 (HC) (bispecific antibody)
heavy: not shown
light: DIELTQSPASLSASVGETVTITCRASGNIHNYLAWYQQKQGKSPQLLVYYTTTLADGVPSRFSGSGSGTQYSLKINSLQPEDFGSYYCQHFWSTPRTFGGGTKLELKRTVAAPSVFIFPPSDEQLKSGTASVVCLLNNFYPREAKVQWKVDNALQSGNSQESVTEQDSKDSTYSLSSTLTLSKADYEKHKVYACEVTHQGLSSPVTKSFNRGEC
notes: unfused kappa light chain; also called bi-specific-D1.3 IgG-VLDx2 (HC)
Kd [2]: 5.44 nM | koff [2]: 0.0028 s⁻¹ | kon [2]: 516000 M⁻¹ s⁻¹

B3: D1.3 Fab-VLDx1 (HC) (bispecific antibody)
heavy: EVKLQESGPGLVAPSQSLSITCTVSGFSLTGYGVNWVRQPPGKGLEWLGMIWGDGNTDYNSALKSRLSISKDNSKSQVFLKMNSLHTDDTARYYCARERDYRLDYWGQGTTVTVSSASTKGPSVFPLAPSSKSTSGGTAALGCLVKDYFPEPVTVSWNSGALTSGVHTFPAVLQSSGLYSLSSVVTVPSSSLGTQTYICNVNHKPSNTKVDKKVEPKSCSGGGGSGGGGSGGGGSGGGGSKAMHVAQPAVVLASSRGIASFVCEYASPGKYTEVRVTVLRQADSQVTEVCAATYMTGNELTFLDDSICTGTSSGNQVNLTIQGLRAMDTGLYICKVELMYPPPYYLGIGNGTQIYVIDPEPSPDSN
light: B2 light
Kd [3]: 5.41 nM | koff [3]: 0.00285 s⁻¹ | kon [3]: 526000 M⁻¹ s⁻¹

B4: D1.3 Fab-VLDx1 (LC) (bispecific antibody)
heavy: EVKLQESGPGLVAPSQSLSITCTVSGFSLTGYGVNWVRQPPGKGLEWLGMIWGDGNTDYNSALKSRLSISKDNSKSQVFLKMNSLHTDDTARYYCARERDYRLDYWGQGTTVTVSSASTKGPSVFPLAPSSKSTSGGTAALGCLVKDYFPEPVTVSWNSGALTSGVHTFPAVLQSSGLYSLSSVVTVPSSSLGTQTYICNVNHKPSNTKVDKRVEPKSCAAAGLGGHHHHHHGAAEQKLISEEDL
light: DIELTQSPASLSASVGETVTITCRASGNIHNYLAWYQQKQGKSPQLLVYYTTTLADGVPSRFSGSGSGTQYSLKINSLQPEDFGSYYCQHFWSTPRTFGGGTKLELKRTVAAPSVFIFPPSDEQLKSGTASVVCLLNNFYPREAKVQWKVDNALQSGNSQESVTEQDSKDSTYSLSSTLTLSKADYEKHKVYACEVTHQGLSSPVTKSFNRGECSGGGGSGGGGSGGGGSGGGGSKAMHVAQPAVVLASSRGIASFVCEYASPGKYTEVRVTVLRQADSQVTEVCAATYMTGNELTFLDDSICTGTSSGNQVNLTIQGLRAMDTGLYICKVELMYPPPYYLGIGNGTQIYVIDPEPSPDSN
notes: also called D1.3 VLDx1 (LC); D1.3 Fab-VLDx1 (CL)
Kd [3]: 13.6 nM | koff [3]: 0.00296 s⁻¹ | kon [3]: 218000 M⁻¹ s⁻¹

B5: D1.3 IgG-VLDx2 (LC) (bispecific antibody)
heavy: not shown
light: B4 light
notes: unfused heavy chain; also called D1.3 IgG-VDLx2 (LC); bi-specific-D1.3 IgG-VLDx2 (LC)
Kd [2]: 24.5 nM | koff [2]: 0.004 s⁻¹ | kon [2]: 163000 M⁻¹ s⁻¹

B6: D1.3 Fab-VLDx2 (HC+LC) (bispecific antibody)
heavy: B3 heavy
light: B4 light
notes: also called D1.3 VLDx2 (HC+LC); D1.3 Fab-VLDx2 (LC+HC)
Kd [3]: 9.73 nM | koff [3]: 0.00433 s⁻¹ | kon [3]: 445000 M⁻¹ s⁻¹

Continued, values first:

binding result [1]: no binding
B1: D1.3 anti-lysozyme antibody [D1.3 IgG] (antibody, V domains shown)
VH: EVKLQESGPGLVAPSQSLSITCTVSGFSLTGYGVNWVRQPPGKGLEWLGMIWGDGNTDYNSALKSRLSISKDNSKSQVFLKMNSLHTDDTARYYCARERDYRLDYWGQGTTVTVSS
VL: DIELTQSPASLSASVGETVTITCRASGNIHNYLAWYQQKQGKSPQLLVYYTTTLADGVPSRFSGSGSGTQYSLKINSLQPEDFGSYYCQHFWSTPRTFGGGTKLELKR
notes: Full length IgG1 kappa, expressed in Expi293 cells; parent of all IgG-VLD fusions; also called D1.3 IgG alone (full length); D1.3 antibody

Kd [2]: 5.47 nM | koff [2]: 0.0029 s⁻¹ | kon [2]: 530000 M⁻¹ s⁻¹
B7: D1.3 IgG-VLDx4 (HC+LC) (bispecific antibody)
heavy: not shown
light: B4 light
notes: also called IgG Imx4 (HC+LC); IgG Imx4 (HCLC)
